Measurements: the Human Domainome abundance scans (Beltran et al. 2025)

B1: Friend leukemia integration 1 transcription factor, residues 116 to 197; numbered along this chain, Q01543 (parent)
chain: NMTTNERRVIVPADPTLWTQEHVRQWLEWAIKEYSLMEIDTSFFQNMDGKELCKMNKEDFLRATTLYNTEVLLSHLSYLRES

Variants of: B1
Assay: abundance fitness (aPCA) (normalised: wild type 0, dead -1); higher = more abundant; growth selection in yeast, the domain comes from the species named
Conditions: Homo sapiens

Abundance fitness: each site, then its substitutions
Q25: F -0.106 | K 0.041 | V 0.078 | G -0.039 | T -0.045 | L -0.093 | N 0.092 | H -0.083 | Y -0.143 | C 0.036 | E -0.334 | W -0.251 | R -0.006 | S -0.246 | M -0.187 | P -0.915 | A -0.066
K32: Q -0.08 | H -0.351 | W -0.159 | D 0.007 | E 0.003 | G -0.2 | P -0.359 | L -0.169 | C -0.401 | N -0.011 | I -0.189 | T -0.001 | V -0.157 | R -0.052 | M -0.209 | F -0.332
A30: F -0.287 | L -0.186 | N -0.136 | R -0.21 | D -0.709 | V -0.092 | T -0.058 | M -0.057 | H -0.162 | I -0.061 | S 0.031 | C -0.058 | W -0.554 | E -0.071 | P -1.07 | G -0.253 | Q 0.18 | K -0.161
E28: T -0.017 | G -0.189 | P -0.745 | Y -0.12 | N -0.377 | K 0.058 | L -0.013 | W -0.285 | Q 0.005 | I 0.141 | C 0.009 | F -0.366 | R -0.018 | S -0.123 | M -0.187 | V -0.035 | A 0.006
S35: W -0.509 | E -0.101 | M -0.271 | F -0.33 | A -0.076 | C -0.183 | P -0.228 | T -0.021 | L -0.335 | R -0.156 | D -0.02 | Q -0.105 | G 0.073 | H -0.132 | V -0.405 | N 0.011
V23: R -0.74 | M -0.844 | W -0.814 | A -0.632 | F -0.686 | Q -0.92 | I -0.386 | D -0.759 | P -0.044 | K -0.752 | G -0.931 | L -0.175 | S -0.538 | T -0.23 | C -0.752
L27: G -0.284 | H -0.463 | D -0.532 | S -0.438 | A -0.229 | C -0.384 | K -0.708 | F 0.079 | Y -0.834 | I -0.132 | V 0.035 | W -0.856 | E -0.857 | T -0.383 | R -0.876
E21: C -0.371 | G -0.151 | S -0.086 | L -0.096 | D -0.084 | A 0.017 | N -0.091 | W -0.295 | K -0.243 | T -0.131 | Q 0.066 | V -0.111 | I -0.474 | M -0.045
H22: L -0.386 | T -0.274 | P -1.02 | S -0.246 | I -0.201 | K -0.199 | Y -0.365 | M 0.028 | G -0.106 | C -0.529 | N -0.007 | R -0.266 | V -0.17 | D 0.116 | E 0.062 | Q 0.045 | A -0.318
I31: F -0.549 | H -0.034 | T -0.023 | R 0.063 | Q -0.075 | L -0.305 | V -0.001 | M 0.08 | P -1.22 | W -0.48 | S 0.041 | G -0.384 | K -0.059
E33: K -0.021 | N -0.354 | F -0.803 | V -0.435 | Y -0.278 | P -0.973 | H -0.204 | D -0.117 | I -0.437 | T -0.243 | W -0.382 | R -0.06 | L -0.981 | G -0.8 | Q -0.055 | S -0.238
L36: A -0.83 | S -0.566 | N -0.742 | K -0.839 | V -0.21 | P -0.573 | G -0.467 | D -0.521 | R -1.04 | Q -0.603 | T -0.51 | I 0.08 | E -0.605 | C -0.769 | F -0.195 | H -0.521
T19: P -1.02 | G -0.194 | L -0.243 | K -0.12 | I -0.529 | A -0.309 | N -0.263 | R -0.12 | C -0.296 | F -0.79 | S -0.113 | E -0.597 | V -0.351 | M -0.39 | H 0.12 | W -0.796
R24: Y -0.278 | C -0.347 | K -0.09 | M -0.131 | S 0.093 | H -0.161 | T -0.058 | E -0.348 | F -0.044 | I -0.183 | P -0.804 | A 0.106 | W 0.054 | G 0.039 | L -0.011
Q20: K 0.138 | V -0.137 | R -0.077 | Y -0.109 | W -0.123 | T -0.029 | P -0.454 | M 0.046 | E -0.195 | A -0.126 | G -0.057 | S 0.047 | D -0.054 | C -0.176 | N 0.218 | L -0.289 | H 0.018
E38: Q -0.215 | S -0.068 | W -0.349 | V -0.231 | L -0.04 | R -0.203 | H -0.231 | I -0.32 | N -0.397 | T -0.145 | G -0.131 | K -0.087 | M -0.09 | C -0.126 | F -0.329
M37: Y 0.059 | T 0.055 | S -0.078 | C -0.317 | V 0.066 | N -0.44 | P -0.076 | L -0.001 | F 0.187 | Q -0.242 | D 0.021 | W -0.13 | A 0.003 | R -0.055 | G -0.02 | E -0.115 | K 0.008
Y34: W 0.046 | A -0.274 | R -0.207 | L -0.227 | T -0.684 | H -0.106 | K -0.032 | F 0.109 | G -0.215 | P -0.897 | Q -0.346 | S -0.108 | M -0.185 | N 0.245 | E -0.181 | V -0.978
I39: F -0.112 | W -0.57 | R -1 | C -0.102 | T -0.159 | P -0.654 | Q -0.743 | K -1.04 | V 0.019 | M 0.027 | E -0.261 | G -0.85 | L -0.017 | A -0.259
W18: P -0.753 | L -0.868 | K -1.18 | S -0.981 | Y -0.759 | M -0.616 | R -0.563 | Q -0.891
W26: Q -0.818 | S -0.402 | C -0.626 | K -0.813 | N -0.732 | T -1.01 | M -0.445 | E -0.921 | P -1.04
W29: L -0.116 | A 0.101 | S 0.112 | V -0.14 | C -0.041 | D 0.189 | G 0.168 | Q 0.084 | I -0.029 | E 0.212 | N 0.432 | K 0.005 | R 0.003 | T 0.13 | P -1.01 | H -0.033 | Y -0.058
